Assay [1] concerns the target SigH (Mycobacterium tuberculosis) (UniProt P9WGH8). The following applies: cited from earlier work.
In assay [2] the target is T1, Mycobacterium tuberculosis SigH, 6xHis-tagged (pET29a) (Mycobacterium tuberculosis H37Rv, UniProt P9WGH9 1-216).
T1 construct: no tag removal is told; also called WT SigH; 6xHis:SigH; not shown: His6, C-terminal, kept
The assay is described as follows: native gel or EMSA; metal free RshA mixed with SigH at equimolar concentrations (3 µM each in the text, 5 µM each in the legend), 50 mM Tris HCl pH 8.0, 100 mM NaCl, 0.01% Triton X-100, 25°C; native gel pH 8.8 and SDS-PAGE, Coomassie. The note with it: both partners purified. A general note: In EMSA bound probe runs differently from free probe, usually more slowly.

Chain of SigH (Mycobacterium tuberculosis) (P9WGH8 whole entry): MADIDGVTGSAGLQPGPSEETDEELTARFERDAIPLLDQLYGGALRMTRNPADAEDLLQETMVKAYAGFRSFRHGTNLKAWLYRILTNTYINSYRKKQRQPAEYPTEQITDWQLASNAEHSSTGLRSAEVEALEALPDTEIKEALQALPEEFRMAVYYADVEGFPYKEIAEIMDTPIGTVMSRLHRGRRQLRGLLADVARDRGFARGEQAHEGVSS
T1 sequence (P9WGH9 whole entry): as the sequence (P9WGH8 whole entry) above

One may read the Kd as the constant that tells how readily two partners part at equilibrium. With RshA (from UniProt P9WJ68), the Kd in assay [1] was 15 nM.

B1: Mycobacterium tuberculosis anti-sigma factor RshA, 6xHis-tagged (pET29a) (natural protein)
chain: MSENCGPTDAHADHDDSHGGMGCAEVIAEVWTLLDGECTPETRERLRRHLEACPGCLRHYGLEERIKALIGTKCRGDRAPEGLRERLRLEIRRTTIIRGGP
notes: also called WT RshA; 6xHis:RshA; not shown: His6, C-terminal, kept
Regarding B1, in assay [2], the binding result is “binds”.

Values taken from article PMC3427169, “Interaction of Mycobacterium tuberculosis RshA and SigH Is Mediated by Salt Bridges” (PLoS ONE, 2012).
